Test results: US20170158755A1 (PROTHENA BIOSCIENCES, published 2017)
Where a chain is given by its changes, count along the chain named. Blank lines part the entries; values can stand above or below the binder they belong to.

Experiments:
[1] = molecular target: T1, mouse His-laminin-α4 (mouse, UniProt P97927 826-1816, limits assumed); experiment: Biacore SPR
T1 construct: Bought His-tagged recombinant protein; also called Murine LAMA4; recombinant mouse LAMA4-His
T1 sequence (looked up): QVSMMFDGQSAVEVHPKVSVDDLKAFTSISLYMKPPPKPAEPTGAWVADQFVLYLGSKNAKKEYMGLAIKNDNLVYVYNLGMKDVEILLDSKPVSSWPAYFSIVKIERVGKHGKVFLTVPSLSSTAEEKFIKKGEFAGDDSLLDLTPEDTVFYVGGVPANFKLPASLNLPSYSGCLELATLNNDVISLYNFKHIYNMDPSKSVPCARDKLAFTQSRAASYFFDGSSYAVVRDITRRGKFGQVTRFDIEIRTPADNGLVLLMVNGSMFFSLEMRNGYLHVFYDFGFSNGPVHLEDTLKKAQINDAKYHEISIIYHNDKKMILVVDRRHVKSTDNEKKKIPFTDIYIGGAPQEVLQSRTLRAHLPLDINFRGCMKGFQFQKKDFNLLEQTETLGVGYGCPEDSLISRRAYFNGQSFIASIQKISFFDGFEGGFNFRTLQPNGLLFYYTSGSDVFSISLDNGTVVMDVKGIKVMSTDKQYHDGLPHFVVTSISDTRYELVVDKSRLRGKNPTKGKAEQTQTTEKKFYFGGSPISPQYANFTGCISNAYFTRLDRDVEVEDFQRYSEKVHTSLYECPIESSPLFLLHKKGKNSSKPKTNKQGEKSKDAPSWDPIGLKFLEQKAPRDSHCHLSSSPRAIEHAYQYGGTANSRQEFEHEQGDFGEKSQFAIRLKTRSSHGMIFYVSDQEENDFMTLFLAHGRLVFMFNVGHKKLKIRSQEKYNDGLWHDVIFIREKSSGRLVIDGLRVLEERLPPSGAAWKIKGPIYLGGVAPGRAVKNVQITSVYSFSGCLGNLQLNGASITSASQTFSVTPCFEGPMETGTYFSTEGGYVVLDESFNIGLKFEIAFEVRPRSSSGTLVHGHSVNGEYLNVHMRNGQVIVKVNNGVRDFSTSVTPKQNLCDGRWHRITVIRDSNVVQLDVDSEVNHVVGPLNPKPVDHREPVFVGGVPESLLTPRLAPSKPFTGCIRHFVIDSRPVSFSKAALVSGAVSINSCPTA

[2] = molecular target: T2, human His-laminin-α4 (human, UniProt Q16363 833-1823, limits assumed); experiment: Biacore SPR
T2 construct: Bought His-tagged recombinant protein (R & D Systems); also called Human LAMA4; human His-laminin-α4 (R & D Systems)
T2 sequence: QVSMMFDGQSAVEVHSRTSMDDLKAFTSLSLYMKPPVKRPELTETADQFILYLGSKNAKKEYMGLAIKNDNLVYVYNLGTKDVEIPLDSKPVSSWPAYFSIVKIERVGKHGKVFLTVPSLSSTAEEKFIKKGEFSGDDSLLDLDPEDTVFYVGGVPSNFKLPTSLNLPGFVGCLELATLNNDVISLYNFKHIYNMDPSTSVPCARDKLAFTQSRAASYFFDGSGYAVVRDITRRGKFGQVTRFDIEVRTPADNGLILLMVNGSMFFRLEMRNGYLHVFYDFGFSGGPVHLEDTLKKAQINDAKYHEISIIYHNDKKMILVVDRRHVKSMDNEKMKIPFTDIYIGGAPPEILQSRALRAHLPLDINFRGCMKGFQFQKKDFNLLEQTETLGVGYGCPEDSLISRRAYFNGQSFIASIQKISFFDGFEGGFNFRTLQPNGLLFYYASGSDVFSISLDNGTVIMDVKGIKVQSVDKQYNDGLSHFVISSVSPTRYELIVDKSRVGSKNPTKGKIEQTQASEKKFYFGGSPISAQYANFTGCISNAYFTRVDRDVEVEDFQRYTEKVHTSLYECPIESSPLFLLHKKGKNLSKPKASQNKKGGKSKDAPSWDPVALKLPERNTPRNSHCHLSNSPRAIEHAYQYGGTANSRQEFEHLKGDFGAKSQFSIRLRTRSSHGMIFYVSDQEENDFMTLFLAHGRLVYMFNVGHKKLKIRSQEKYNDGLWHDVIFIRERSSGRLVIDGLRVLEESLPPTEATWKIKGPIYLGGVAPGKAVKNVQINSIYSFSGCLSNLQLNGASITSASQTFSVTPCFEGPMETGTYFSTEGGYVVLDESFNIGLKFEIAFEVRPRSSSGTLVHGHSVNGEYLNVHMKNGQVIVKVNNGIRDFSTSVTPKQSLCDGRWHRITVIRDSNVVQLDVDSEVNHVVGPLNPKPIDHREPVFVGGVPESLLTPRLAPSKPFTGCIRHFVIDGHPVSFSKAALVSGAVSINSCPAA

[3] = molecular target: T3, LGde2, human LAMA4 G domain with LG2 deleted, displayed on 293 cells (human, UniProt Q16363 830-1821, limits assumed); experiment: flow cytometry on 293 cells displaying LAMA4 G-domain variants; % binding
T3 construct: pDisplay construct on 293 cells; vector tags and anchor not written here; also called LGde2 (LG13)
T3 sequence: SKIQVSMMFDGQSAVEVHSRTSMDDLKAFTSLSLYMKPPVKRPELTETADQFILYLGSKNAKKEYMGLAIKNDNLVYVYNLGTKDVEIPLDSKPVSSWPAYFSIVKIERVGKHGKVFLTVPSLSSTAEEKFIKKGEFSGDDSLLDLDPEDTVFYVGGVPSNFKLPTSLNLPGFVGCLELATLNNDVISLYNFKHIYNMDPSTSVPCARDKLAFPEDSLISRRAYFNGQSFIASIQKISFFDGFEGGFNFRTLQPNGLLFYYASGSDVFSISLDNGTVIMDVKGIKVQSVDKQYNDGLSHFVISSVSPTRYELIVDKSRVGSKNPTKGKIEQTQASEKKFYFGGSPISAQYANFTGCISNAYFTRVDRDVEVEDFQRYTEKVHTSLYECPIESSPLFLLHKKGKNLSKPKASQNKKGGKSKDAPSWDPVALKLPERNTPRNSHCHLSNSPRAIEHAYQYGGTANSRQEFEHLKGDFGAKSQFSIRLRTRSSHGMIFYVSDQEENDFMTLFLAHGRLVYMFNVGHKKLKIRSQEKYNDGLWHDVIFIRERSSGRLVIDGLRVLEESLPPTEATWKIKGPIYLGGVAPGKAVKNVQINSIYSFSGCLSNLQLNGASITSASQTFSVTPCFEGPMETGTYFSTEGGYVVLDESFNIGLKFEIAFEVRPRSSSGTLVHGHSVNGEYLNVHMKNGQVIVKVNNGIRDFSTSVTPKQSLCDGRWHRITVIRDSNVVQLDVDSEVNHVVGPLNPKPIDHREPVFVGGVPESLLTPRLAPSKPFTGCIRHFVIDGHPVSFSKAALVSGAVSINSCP
Source text: LGde1 has a full-length G domain (i.e., LG1-5) with LG1 deleted, LGde2 has a full-length G domain with LG2 deleted, and LGde3 has a full-length G domain with LG3 deleted. Recombinant MCAM-Fc protein was able to specifically bind 293 cells expressing LAMA4 variants LG1-5, LG1-3, and LGde 1 (LG23), but not 293 cells expressing LAMA 4 variants LG4-5, LGde2 (LG13), or LGde3 (LG12).

[4] = molecular target: T4, human LAMA4 G domain (LG1-5) displayed on 293 cells (human, UniProt Q16363 830-1821); experiment: flow cytometry on LAMA4-displaying 293 cells, anti-human-650 secondary antibody; MFI
T4 construct: the vector's tags and membrane anchor are not written here; also called LAMA4-displaying human 293 cells; full length
T4 sequence: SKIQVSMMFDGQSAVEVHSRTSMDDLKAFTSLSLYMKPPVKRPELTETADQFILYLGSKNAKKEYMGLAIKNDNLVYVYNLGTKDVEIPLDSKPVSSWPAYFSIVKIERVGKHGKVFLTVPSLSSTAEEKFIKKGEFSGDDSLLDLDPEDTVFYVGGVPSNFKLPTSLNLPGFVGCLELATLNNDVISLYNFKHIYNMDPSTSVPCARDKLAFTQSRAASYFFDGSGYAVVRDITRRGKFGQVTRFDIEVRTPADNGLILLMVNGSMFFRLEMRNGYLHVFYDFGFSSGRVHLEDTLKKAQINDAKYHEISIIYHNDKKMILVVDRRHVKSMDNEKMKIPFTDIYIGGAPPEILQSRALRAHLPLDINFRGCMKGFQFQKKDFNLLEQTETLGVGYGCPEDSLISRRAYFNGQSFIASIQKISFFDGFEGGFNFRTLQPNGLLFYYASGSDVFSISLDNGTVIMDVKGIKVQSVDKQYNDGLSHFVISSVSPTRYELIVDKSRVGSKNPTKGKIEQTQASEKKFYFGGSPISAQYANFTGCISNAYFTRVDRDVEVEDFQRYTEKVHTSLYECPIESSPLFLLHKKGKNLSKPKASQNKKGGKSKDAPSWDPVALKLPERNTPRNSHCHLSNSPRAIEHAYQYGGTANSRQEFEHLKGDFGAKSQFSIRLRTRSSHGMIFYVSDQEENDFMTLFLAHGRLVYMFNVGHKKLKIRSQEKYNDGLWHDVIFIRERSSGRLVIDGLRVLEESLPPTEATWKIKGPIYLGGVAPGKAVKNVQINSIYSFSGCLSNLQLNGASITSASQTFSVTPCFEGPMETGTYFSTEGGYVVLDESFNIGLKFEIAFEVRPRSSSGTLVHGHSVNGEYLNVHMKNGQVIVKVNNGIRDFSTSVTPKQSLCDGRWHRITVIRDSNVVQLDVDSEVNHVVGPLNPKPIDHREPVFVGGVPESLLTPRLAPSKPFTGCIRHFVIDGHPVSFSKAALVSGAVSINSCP
Procedure: (§1) The 19C12 variants chimeric 19C12, H2L3, H2L4, H2L6, H3L6, and isotype control were tested for their ability to block the binding of LAMA4 to its ligand MCAM (FIG. 15) and to bind LAMA4-displaying cells (FIG. 16). To test LAMA4 binding capacity, serially diluted antibodies were pre-incubated with LAMA4-displaying human 293 cells, followed by anti-human-650 secondary antibody incubation. […] Fluorescent signal was assessed via flow cytometric analyses and plotted as mean fluorescence intensity (MFI). All 19C12 variants retained their MCAM blocking and LAMA4 binding activity when compared with chimeric 19C12.

[5] = molecular target: T5, mouse LAMA4 in mouse tissue (mouse, UniProt P97927 25-1816); experiment: staining of WT versus LAMA4.KO mouse brain cryosections, anti-human-594 secondary
T5 construct: Native protein in tissue sections, there part of laminin trimers; also called LAMA4-positive mouse tissue; LAMA4-positive mouse brain vasculature
T5 sequence (P97927 25-1816 limits assumed): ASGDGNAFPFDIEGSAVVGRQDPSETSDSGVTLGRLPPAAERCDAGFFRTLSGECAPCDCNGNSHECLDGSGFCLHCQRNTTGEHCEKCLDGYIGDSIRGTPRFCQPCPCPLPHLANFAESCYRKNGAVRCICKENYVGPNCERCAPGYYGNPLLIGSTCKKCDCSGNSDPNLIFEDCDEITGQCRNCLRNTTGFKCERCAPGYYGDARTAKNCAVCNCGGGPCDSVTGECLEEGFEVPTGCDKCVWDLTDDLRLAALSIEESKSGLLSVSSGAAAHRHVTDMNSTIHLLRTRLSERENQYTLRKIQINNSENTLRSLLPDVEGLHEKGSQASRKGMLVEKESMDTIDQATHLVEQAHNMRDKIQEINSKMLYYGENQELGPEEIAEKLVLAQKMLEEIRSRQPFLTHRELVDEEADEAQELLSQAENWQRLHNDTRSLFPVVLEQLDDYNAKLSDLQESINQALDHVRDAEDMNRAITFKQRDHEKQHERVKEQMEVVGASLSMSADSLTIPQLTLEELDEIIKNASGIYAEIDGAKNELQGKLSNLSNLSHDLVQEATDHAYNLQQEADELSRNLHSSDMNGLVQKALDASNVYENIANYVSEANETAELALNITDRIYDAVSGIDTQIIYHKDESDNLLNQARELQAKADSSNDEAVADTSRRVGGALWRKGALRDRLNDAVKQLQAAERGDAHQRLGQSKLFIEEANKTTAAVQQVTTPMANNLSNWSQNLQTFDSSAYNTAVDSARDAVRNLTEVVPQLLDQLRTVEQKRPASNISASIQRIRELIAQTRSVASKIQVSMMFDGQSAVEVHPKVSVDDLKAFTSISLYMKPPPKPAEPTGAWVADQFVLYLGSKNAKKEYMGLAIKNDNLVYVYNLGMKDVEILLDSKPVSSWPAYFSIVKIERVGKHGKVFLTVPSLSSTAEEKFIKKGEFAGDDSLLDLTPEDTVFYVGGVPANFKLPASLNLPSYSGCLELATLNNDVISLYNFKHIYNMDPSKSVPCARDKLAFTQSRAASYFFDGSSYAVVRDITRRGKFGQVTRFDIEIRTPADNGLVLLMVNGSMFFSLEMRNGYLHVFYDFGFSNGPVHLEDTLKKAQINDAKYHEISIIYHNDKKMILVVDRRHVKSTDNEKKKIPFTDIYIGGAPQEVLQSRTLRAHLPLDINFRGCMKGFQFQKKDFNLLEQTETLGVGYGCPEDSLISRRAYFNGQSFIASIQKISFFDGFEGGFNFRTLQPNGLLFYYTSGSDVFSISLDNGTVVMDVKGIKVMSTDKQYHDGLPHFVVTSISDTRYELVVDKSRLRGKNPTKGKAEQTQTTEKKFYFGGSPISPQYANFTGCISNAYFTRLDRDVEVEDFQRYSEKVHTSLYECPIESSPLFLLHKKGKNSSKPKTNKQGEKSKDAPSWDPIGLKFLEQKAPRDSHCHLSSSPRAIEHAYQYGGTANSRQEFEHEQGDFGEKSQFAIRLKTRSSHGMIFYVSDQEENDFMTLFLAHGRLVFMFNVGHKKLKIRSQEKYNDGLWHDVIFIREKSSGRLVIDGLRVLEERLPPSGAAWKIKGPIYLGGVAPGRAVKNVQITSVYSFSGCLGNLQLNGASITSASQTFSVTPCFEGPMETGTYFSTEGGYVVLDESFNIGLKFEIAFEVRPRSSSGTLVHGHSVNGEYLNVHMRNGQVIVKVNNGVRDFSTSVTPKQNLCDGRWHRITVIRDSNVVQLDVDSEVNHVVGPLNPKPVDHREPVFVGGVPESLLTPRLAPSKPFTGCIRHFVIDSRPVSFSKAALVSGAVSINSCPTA
Source text: The specific binding between the 19C12 humanized variants (19C12 chi, H2L3, H2L4, H2L6, H3L6 and isotype control) and LAMA4 was further tested by assessing the variants' ability to stain wild-type vs. LAMA4.KO mouse brains. Humanized monoclonal antibodies against LAMA4 were generated as described in the Materials and Methods. Perfused and fresh frozen WT and LAMA4.KO mouse brains were cryosectioned, acetone-fixed, and stained with LAMA4 primary antibody followed by anti-human-594 secondary antibodies.

[6] = molecular target: T6, recombinant laminin 411 (human, UniProt P07942 22-1786; P11047 34-1609, limits assumed); experiment: flow cytometric blocking assay; antibody pre-incubated with 650-labeled laminin 411; blocked partner: human MCAM on CHO cells; MFI
T6 construct: also called LAMA4 in complex with its gamma1 and beta1 chains
Procedure: as §1
Following two washes with FACS buffer (1% FBS in PBS), cells were resuspended with 650-conjugated anti-pan-laminin antibody (1:1000; Novus Biologicals) and incubated for 20 min at 4° C., and washed again. Cells were analyzed for pan-laminin reactivity by flow cytometry using standard procedures.

- Kd [1]: 5.27 nM
- koff [1]: 0.0116 s⁻¹
- kon [1]: 2.2e+06 M⁻¹ s⁻¹
- Kd [2]: 7.33 nM
- koff [2]: 0.0105 s⁻¹
- kon [2]: 1.43e+06 M⁻¹ s⁻¹
- binding result [3]: no binding
B1: mouse monoclonal antibody 5B5 (antibody, V domains shown)
VH: QVQLQQPGAELVKPGASVKLSCKASGYTFTSYWMHWVKQRPGRGLEWIGRIDPNSGGTKHNEKFKSKATLTVDKPSSTAYMQLSSLTSEDSAVYYCAGSPSYYDYALHYAMDYWGQGTSVTVSS
VL: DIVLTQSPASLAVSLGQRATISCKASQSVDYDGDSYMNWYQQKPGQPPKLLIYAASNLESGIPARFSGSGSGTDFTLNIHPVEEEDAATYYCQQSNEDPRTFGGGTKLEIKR

- binding result [4]: binds
- binding result [5]: binds
- binding result [6]: binds
B2: humanized 19C12 antibody H2L3 (antibody, V domains shown)
VH: QVQLQQSGAELVKPGASVKVSCKASGYAFSTYWMNWVRQAPGQGLEWIGQIYPGDGDTNYNGKFKGRVTITADKSTSTAYMELSSLRSEDTAVYFCARSDGYYDYWGQGTTVTVSS
VL: NIVLTQSPASLAVSLGERATISCRASESVDSYGTSFMHWYQQKPGQPPKLLICLASSLESGVPARFSGSGSRTDFTLTIDPVEAEDAATYYCQQNNEDPPTFGAGTKLEIKR
notes: Intact humanized IgG (human Fc); also called VHv2/VLv3; Hu19C12 H2L3

- binding result [4]: binds
- binding result [5]: binds
- binding result [6]: binds
B3: humanized 19C12 antibody H2L4 (antibody, V domains shown)
VH: B2 VH
VL: B2 VL with C53S, R72G, D80S
notes: Intact humanized IgG (human Fc); also called VHv2/VLv4

- binding result [4]: binds
- binding result [5]: binds
- binding result [6]: binds
B4: humanized 19C12 antibody H3L6 (antibody, V domains shown)
VH: B2 VH with Q1E
VL: B2 VL with N1D, C53S, R72G, D80S
notes: Intact humanized IgG (human Fc); also called VHv3/VLv6

- binding result [4]: binds
- binding result [5]: binds
- binding result [6]: binds
B5: humanized 19C12 antibody H2L6 (antibody, V domains shown)
VH: B2 VH
VL: B2 VL with N1D, C53S, R72G, D80S
notes: Intact humanized IgG (human Fc); also called VHv2/VLv6
